The record followed here is the supplement of paper PMC9170038.

The series concerns MS2 coat protein. The experiment in a line: apparent KD of MS2 coat protein; designed switch direction (-1 OFF switch, 1 ON switch): -1; higher = weaker reporter binding. The method in brief:
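Normalised cluster fluorescence was curve-fitted, and each design's median over clusters is its apparent KD. Before this, SNAP-549-labelled MS2 coat protein was titrated from 0.7 or 1.5 nM, doubling to 3 µM, over RNA switches transcribed on Illumina chips by stalled E. coli RNA polymerase. Titrations had no input, 200 uM small-molecule ligand, or an oligonucleotide input, and steps lasted 0.8–1.5 h (lowest) to 10–20 min (highest).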

[1] abbreviates: input ligand: microRNA oligo, concentration not stated.
Where [2] appears, read: Eterna round: R95, input ligand: microRNA oligo, concentration not stated.
The mark [3] stands for this setting: Eterna round: R95, input ligand: FMN 200 uM.
The mark [4] stands for this setting: Eterna round: R95, input ligand: none.

Consider “CUUUUGUGAGGAUAUUAGUAGUAAAUAAAUUAAAUUACUACUGAGAAGGCACAUGAGGAUCACCCAUGUUCCUC [salish99_ex4_r3_057] (Eterna round: R96, puzzle: Exclusion 4)”, for which the “apparent KD of MS2 coat protein” value was found to be 428 nM (input ligand: FMN 200 uM), 32.8 nM under setting [1] and 36.6 nM (input ligand: none).
Regarding “CUUUUGUGAGGAUAUUAGUAGUAAAUAAAUUAAAUUACUACUGAGAAGGCACAUGAGGAUCACCCAUGUUCCUC [salish99_ex4_r3_057] (puzzle: Exclusion 4)”, the “apparent KD of MS2 coat protein” value under setting [2] was found to be 32 nM.
Take “CUUUUGUGAGGAUAUUAGUAUUAAAUAAAUAAAAUUACUACUGAGAAGGCACAUGAGGAUCACCCAUGUUCCUC [salish99_ex4_r3_050] (puzzle: Exclusion 4)”: the “apparent KD of MS2 coat protein” value under setting [2] was 33.6 nM.
Consider “GAAAACCUAGGAUAUACAUGAGGAUCACCCAUGUGAAAACCUCUUAAAACUUAACAAUGUAGAAGGAGGAAAAC [Azaqure] (puzzle: Exclusion 3)”, for which the “apparent KD of MS2 coat protein” value was determined as 39.9 nM under setting [3], 43.2 nM under setting [2] and 38.3 nM under setting [4].
For “GAAAACGCAGAGGAUAUUUCAGAUCAAAGCUGCAAAGAAGGCUGCACAUGAGGAUCACCCAUGUGGUCUUUAAA [Mod of Quesina - Jieux - Exclusion 6] (Eterna round: R97, puzzle: Exclusion 6)”, the “apparent KD of MS2 coat protein” value came to 286 nM (input ligand: FMN 200 uM) and 20.7 nM (input ligand: none).
Regarding “GAAAACGCAGAGGAUAUUUCAGAUCAAAGCUGCAAAGAAGGCUGCACAUGAGGAUCACCCAUGUGGUCUUUAAA [Quesina] (Eterna round: R96, puzzle: Exclusion 6)”, the “apparent KD of MS2 coat protein” value under setting [1] turned out to be 16 nM.
For the sequence “GAAAACGCAGAGGAUAUUUCAGAUCAAAGCUGCAAAGAAGGCUGCACAUGAGGAUCACCCAUGUGGUCUUUAAA [Quesina] (puzzle: Exclusion 6)”, the “apparent KD of MS2 coat protein” value was found to be 167 nM under setting [3], 17.8 nM under setting [2] and 16.4 nM under setting [4].
With “GAAAAGGUAGGAUAUACGAAAAAAAAGGGUAGAAAUAAAACACAUGAGGAUCACCCAUGUAGAAGGACCAAAAG [salish99_ex2_r3_076] (puzzle: Exclusion 2)”, the “apparent KD of MS2 coat protein” value reads like this: under setting [3], 74.5 nM; under setting [2], 20.9 nM; under setting [4], 15.5 nM.
With “GAAAAGGUAGGAUAUACGAAAAAAAAUGGUAGAAAAAAAACACAUGAGGAUCACCCAUGUAGAAGGACCAAAAG [salish99_ex2_r3_071] (puzzle: Exclusion 2)”, the “apparent KD of MS2 coat protein” value by setting is: under setting [3], 23 nM; under setting [2], 24.6 nM; under setting [4], 17.9 nM.
For the sequence “GAAAAUGUGGAGGAUAUCGACUUCGAAAGAAGUCGAGAAGGCCACACAUGAGGAUCACCCAUGUGAUGCCUAUA [Omei Ex6 H8] (Eterna round: R97, puzzle: Exclusion 6)”, the “apparent KD of MS2 coat protein” value reads like this: (input ligand: FMN 200 uM) 774 nM; (input ligand: none) 230 nM.
As to “GAAACGCGAGGAUAUACAGACGAGUCCAUUACGUGUCUCGGACUUGAGGAUCACCCAAGUAGAAGGCGUCUCAG [salish99_ex2_r4_631] (Eterna round: R97, puzzle: Exclusion 2)”, the “apparent KD of MS2 coat protein” value (input ligand: FMN 200 uM) came to 24.8 nM and the “apparent KD of MS2 coat protein” value (input ligand: none) worked out at 27.6 nM.
As to “GAAAUACAUGAGGAUCACCCAUGUAAGGAUAUGCUAGCGGUCGGCUGACUGACUGCUAGCAGAAGGUACAUGAU [Mat - Mod of JL D81] (puzzle: Exclusion 1)”, the “apparent KD of MS2 coat protein” value under setting [2] amounted to 67.5 nM.
Consider “GAACUGAAGCAAAGCUUUAGUCGUACAUGAGGAUCACCCAUGUAGGAUAUGGUAGGCAAAGCUUACUAGAAGGACAGAGUGAUC [Mat - Exclusion NG 3 - Mod of JL - D70] (Eterna round: R96, puzzle: Exclusion NG 3)”, for which the “apparent KD of MS2 coat protein” value is, setting by setting: (input ligand: FMN 200 uM) 338 nM; under setting [1], 336 nM; (input ligand: none) 336 nM.
Regarding “GAAGAAGAGAGAAUAGAAAACAUGAGGAUCACCCAUGUGAGAAGAUGAGGGUGUAGCAGGCUUUUUGCUCGUCUUAU (puzzle: Sensor v3, turn-off variant 1)”, the “apparent KD of MS2 coat protein” value was 32.5 nM under setting [3], 119 nM under setting [2] and 31.2 nM under setting [4].
For “GAAUAGAGAGGAUAUGCGAAGUAGGUAGUACGAUAUAUCUGACAUGAGGAUCACCCAUGUAGAAGGCUCAGAUC [EX2 #5] (Eterna round: R97, puzzle: Exclusion 2)”, the “apparent KD of MS2 coat protein” value reads like this: (input ligand: FMN 200 uM) 34.4 nM; (input ligand: none) 40.3 nM.
For “GAAUAGGCAGGAUAUACAUGAGGAUCACCCAUGUGCUUGCGCUAGGCACGUGAACAACGUAGAAGGGCCUAGAC [ChP 13.04.2015 #11] (puzzle: Exclusion 3)”, under setting [2], the “apparent KD of MS2 coat protein” value is 12.1 nM.
In the case of “GACAGACGAGCGUGAGCCGACAUGAGGAUCACCCAUGUGCUCGUCUUAUAACGUACUGUCACGUUAGUGAUAGUGCG [Sensor v3, turn-off variant 1 (MOD of Eli's v1-13 v.4)] (puzzle: Sensor v3, turn-off variant 1)”, the “apparent KD of MS2 coat protein” value turned out to be 54.3 nM under setting [3], 42.7 nM under setting [2] and 56.7 nM under setting [4].
In the case of “GACAGUCGAGGAUAUACGAUCGUGCUUCGGCACGUAAGAUCACAUGAGGAUCACCCAUGUAGAAGGCGACUGUC [Mod 6 - Jieux - Exclusion 2] (Eterna round: R97, puzzle: Exclusion 2)”, the “apparent KD of MS2 coat protein” value runs as follows: (input ligand: FMN 200 uM) 234 nM; (input ligand: none) 31.7 nM.
On to “GACAGUUCGGAGGAUAUCCAGAACUAAGAACAAGGAGAAGGCCGAACAUGAGGAUCACCCAUGUGUGUUCCCAU [Isdiorzaar] (puzzle: Exclusion 6)”, for which the “apparent KD of MS2 coat protein” value by setting is: under setting [3], 19.4 nM; under setting [2], 30.7 nM; under setting [4], 27 nM.
Take “GACAUCGCAGGAUAUUAGGGUUUGUACAUGAGGAUCACCCAUGUUAAUUGGGUUAAUGUUUAAGAAGGGCGGUGUC [JR_EX5_Sub017] (Eterna round: R97, puzzle: Exclusion 5)”: the “apparent KD of MS2 coat protein” value reads like this: (input ligand: FMN 200 uM) 528 nM; (input ligand: none) 383 nM.
Take “GACAUGAGGAUCACCCAUGUAACCUCAUGUAGGAAGGAGAGUAAGGAUAUACAUGAAGGAAUGAAGUAGAAGGUGCAUAGAGAG [Default title] (Eterna round: R96, puzzle: Exclusion NG 3)”: the “apparent KD of MS2 coat protein” value is 605 nM (input ligand: FMN 200 uM), 377 nM under setting [1] and 586 nM (input ligand: none).
Regarding “GACCAGGCAGGAUAUACAUGAGGAUCACCCAUGUGUCUGCGUUGGGCACGUGAACACGGUAGAAGGGCCUUGAC [ChP 13.04.2015 #15] (puzzle: Exclusion 3)”, under setting [2], the “apparent KD of MS2 coat protein” value is 12.8 nM.
Consider “GACCAGGUAGGAUAUGCUGGGUCGGACUUGAGGAUCACCCAAGUGGCCAAAGUGCGUCCCGCAGAAGGGCCGAAAA [Inanorxeti] (Eterna round: R97, puzzle: Exclusion 5)”, for which the “apparent KD of MS2 coat protein” value reads like this: (input ligand: FMN 200 uM) 81.6 nM; (input ligand: none) 827 nM.
With “GACGACUCGUCAGGAUAUGUAAACGAGCAAUUGACAGAAGGGACACUGUCGAGGGUACACAUGAGGAUCACCCAUGUACUCGUC [Eternabot solution 40] (Eterna round: R96, puzzle: Exclusion NG 1)”, the “apparent KD of MS2 coat protein” value worked out at 12.4 nM (input ligand: FMN 200 uM), 10.3 nM under setting [1] and 16.1 nM (input ligand: none).
With “GACGAGGGAGGAUAUGCACGAGGGAUAUCUGACAUGCCUAUACAUGAGGAUCACCCAUGUAGAAGGCCCAGAUA [Veorleerma] (puzzle: Exclusion 2)”, the “apparent KD of MS2 coat protein” value under setting [2] was 11.9 nM.
As for “GACGUGUAAGGAUAUGAUGUUGCAAACAAGACCCUUAAUCAUUAGAAGGUACAUGAGGAUCACCCAUGUAGGGU [Eternabot (L2) Solution 100] (Eterna round: R97, puzzle: Exclusion 4)”, the “apparent KD of MS2 coat protein” value amounted to 129 nM (input ligand: FMN 200 uM) and 140 nM (input ligand: none).
As to “GACUAAACACGAGGAUAUGCCUGGGAAGAACAGGCAGAAGGCGUGACAUGAGGAUCACCCAUGUAGCCGGGCUAUUCUCGUGUG [Orlaes] (Eterna round: R96, puzzle: Exclusion NG 1)”, the “apparent KD of MS2 coat protein” value came out at 35.4 nM (input ligand: FMN 200 uM), 20.8 nM under setting [1] and 29.3 nM (input ligand: none).
Take “GACUGCUGAGGAUAUACAUGAGGAUCACCCAUGUGCUUCAGCUAGGAGACUAGCAUUGGUAGAAGGUAGUAGUC [LRO-Excl3-03] (puzzle: Exclusion 3)”: the “apparent KD of MS2 coat protein” value under setting [2] was found to be 10.3 nM.
“GACUUCUGAGGAUAUACAUAGAUUUACAUGAGGAUCACCCAUGUUCCUCUAUGUAUAAAUGUAGAAGGCAGAAGAG [Mat - Exclusion 5 - JL Mod - D65] (Eterna round: R97, puzzle: Exclusion 5)”: the “apparent KD of MS2 coat protein” value turned out to be 70.7 nM (input ligand: FMN 200 uM) and 19.7 nM (input ligand: none).
With “GAGAAACAUGAGGAUCACCCAUGUGAGGAUAUGAAAAAGAAAAGAAAAGAAAGAAGAAUCAGAAGGCACAAAGA [salish99-ex1_r3_084] (puzzle: Exclusion 1)”, the “apparent KD of MS2 coat protein” value under setting [3] worked out at 28.1 nM, the “apparent KD of MS2 coat protein” value under setting [2] was 27.9 nM and the “apparent KD of MS2 coat protein” value under setting [4] worked out at 38.9 nM.
On to “GAGACACAUGAGGAUCACCCAUGUGAGGAUAUGCGAAGGACCAAAUUAAGAAUUAAAGGCAGAAGGCACAUAAA [Exclusion 1 V4] (puzzle: Exclusion 1)”, for which the “apparent KD of MS2 coat protein” value is, setting by setting: under setting [3], 36.8 nM; under setting [2], 35.5 nM; under setting [4], 29.3 nM.
Turning to “GAGAUACAUGAGGAUCACCCAUGUGAGGAUAUGAGUCAGUCACGGUGACGUGGCUGACUCAGAAGGCACAAAGG [Mat - Exclusion 1 - JL Mod - D35] (Eterna round: R97, puzzle: Exclusion 1)”, the “apparent KD of MS2 coat protein” value (input ligand: FMN 200 uM) is 88.9 nM and the “apparent KD of MS2 coat protein” value (input ligand: none) is 150 nM.
